In patent US10363306B2, “Cytokines and neuroantigens for treatment of immune disorders” (East Carolina University, priority 2009, dated 2019):

Key:
[1] = system: EAE in Lewis rats; assay: Prevention of EAE by pretreatment before encephalitogenic challenge; assay type: in vivo; conditions: HEK293-derived
[2] = system: EAE in Lewis rats; assay: Treatment of ongoing EAE after disease onset; assay type: in vivo
[3] = Table 4 Exp. 1 & 2 combined, 1 nmole days −21, −14, −7, challenge day 0
[4] = Table 4 Exp. 1, 1 nmole in saline days −21, −14, −7, challenge DHFR-NAg in CFA day 0
[5] = Table 4 Exp. 2, 1 nmole in saline days −21, −14, −7, challenge DHFR-NAg in CFA day 0
[6] = Table 6 Experiment 1, s.c. day 9 (1 nmole), day 10 (1 nmole), day 12 (0.5 nmole) after DHFR-NAg in CFA day 0
[7] = Table 6 Experiment 2, 1 nmole s.c. on days 9, 10, 12, and 14 after DHFR-NAg in CFA day 0
[8] = Table 6 Experiments 1 & 2 compiled, treatment from day 9 after onset
[9] = Table 7 Experiment 2, 1 nmole s.c. days 9, 10, 12, and 14, severe EAE = scores from 1.0 to 3.0
[10] = Table 7 Experiment 2, 1 nmole s.c. in saline days 9, 10, 12, and 14, IFNβ + NAg as mixture
[11] = Table 7 Experiment 3, 1 nmole s.c. days 9, 10, and 12, severe EAE = scores from 1.0 to 3.0
[12] = Table 7 Experiment 3, 1 nmole s.c. in saline days 9, 10, and 12, IFNβ + NAg as mixture
[13] = Table 7 Experiments 1-3 compiled, 1 nmole s.c. after onset
[14] = Table 7 Experiments 1-3 compiled, severe EAE = scores from 1.0 to 3.0

B1: IFNβ: Rat interferon beta cytokine with enterokinase linker and 6-histidine sequence, no neuroantigen (protein)
chain: IDYKQLQFRQSTSIRTCQKLLRQLNGRLNLSYRTDFKIPMEVMHPSQMEKSYTAFAIQVMLQNVFLVFRSNFSSTGWNETIVESLLDELHQQTELLEIILKEKQEERLTWVTSTTTLGLKSYYWRVQRYLKDKKYNSYAWMVVRAEVFRNFSIILRLNRNFQNGDDDDKGHHHHHH
[1]; [3]
  Incidence of EAE: 8 of 8
  Incidence of severe EAE: 8 of 8
  Mean # days with severe EAE: 3.4 ± 0.8 days
  Mean cumulative score: 22.8 ± 4.0
  Mean maximal score: 2.9 ± 0.4
  Median cumulative score: 22.5
  Median maximal score: 3.0
[1]; Table 4 Exp. 1, 1 nmole days −21, −14, −7, challenge day 0
  Mean # days with severe EAE: 3.0 ± 0.4 days
[1]; Table 4 Exp. 1, 1 nmole days −21, −14, −7, challenge day 0, severe = partial or full hindlimb paralysis
  Incidence of severe EAE: 4 of 4
[1]; [4]
  Incidence of EAE: 4 of 4
  Mean cumulative score: 22.0 ± 2.6
  Mean maximal score: 3.0 ± 0.0
  Median cumulative score: 21.3
  Median maximal score: 3.0
[1]; Table 4 Exp. 2, 1 nmole days −21, −14, −7, challenge day 0
  Mean # days with severe EAE: 3.9 ± 0.9 days
[1]; Table 4 Exp. 2, 1 nmole days −21, −14, −7, challenge day 0, severe = partial or full hindlimb paralysis
  Incidence of severe EAE: 4 of 4
[1]; [5]
  Incidence of EAE: 4 of 4
  Mean cumulative score: 23.7 ± 5.3
  Mean maximal score: 2.8 ± 0.5
  Median cumulative score: 23.6
  Median maximal score: 3.0
[2]; [6]
  % mean maximal weight loss: 10.6 ± 5.3%
  Incidence of severe EAE: 5 of 6
  Mean # days with severe EAE: 1.4 ± 1.1 days
  Mean cum. score: 11.1 ± 5.1
  Mean maximal score: 2.2 ± 0.8
  Median cum. score: 10.3
  Median maximal score: 2.0
[2]; [7]
  % mean maximal weight loss: 20.7 ± 1.9%
  Incidence of severe EAE: 3 of 5
  Mean # days with severe EAE: 1.3 ± 1.4 days
  Mean cum. score: 11.2 ± 5.9
  Mean maximal score: 2.0 ± 1.0
  Median cum. score: 8.3
  Median maximal score: 2.0
[2]; [8]
  % mean maximal weight loss: 15.2 ± 6.5%
  Incidence of severe EAE: 8 of 11
  Mean # days with severe EAE: 1.4 ± 1.2 days
  Mean cum. score: 11.1 ± 5.2
  Mean maximal score: 2.1 ± 0.8
  Median cum. score: 8.3
  Median maximal score: 2.0
[2]; [9]
  Incidence of severe EAE: 6 of 6
  Mean # days with severe EAE (A-P): 1.9 ± 2.1 days
[2]; [10]
  Mean cum. score: 7.2 ± 3.8
  Mean maximal score: 2.2 ± 1.0
  Median cum. score: 5.9
  Median maximal score: 2.5
[2]; [11]
  Incidence of severe EAE: 2 of 7
  Mean # days with severe EAE (A-P): 0.4 ± 0.6 days
[2]; [12]
  Mean cum. score: 3.1 ± 2.2
  Mean maximal score: 1.0 ± 1.1
  Median cum. score: 2.5
  Median maximal score: 0.5
[2]; [13]
  Mean cum. score: 5.0 ± 3.6
  Mean maximal score: 1.5 ± 1.2
  Median cum. score: 4.0
  Median maximal score: 1.0
[2]; [14]
  Incidence of severe EAE: 8 of 13
  Mean # days with severe EAE (A-P): 1.1 ± 1.7 days
[2]; treatment after onset, disease rebound after cessation on day 12 or day 14
  course of EAE during treatment: initial suppression of EAE
